Test results taken from US8440199B2, “Methods for mobilizing mesenchymal stem cells in a patient” (Imperial Innovations Limited, priority 2007, dated 2013).
Read-outs that look alike come from different tables or passages of the source.

Key:
[1] = test system: haematopoietic progenitor cells (HPC); assay: Example 1: HPC mobilisation, hind limb bone marrow perfusion and circulating blood, CFU-HPC assay; type: in vivo, mice
Experimental: Assay was performed in duplicate Mobilised cells were maintained in semi-solid methylcellulose cultures for 11 days before quantification of the number of CFU-HPCs.

[2] = test system: mesenchymal stem cells (MSC); assay: Example 1: MSC mobilisation, hind limb bone marrow perfusion and circulating blood, CFU-MSC assay; type: in vivo, mice; conditions: perfusate and blood, FIGS. 9-12
Experimental: 4×10^5 cells were added to 3 ml Mesencult media including supplements (05501 and 05502 Stemcell Technologies). Assay was performed in duplicate.

EPCs [3] = assay: Circulating CFU-EPC in blood; type: in vivo, mice; conditions: FIG. 20c
EPCs [4] = assay: In situ perfusion of mouse hind limb, CFU-EPC in perfusate; type: in vivo, mice; conditions: for EPC mobilization from the bone marrow: agent alone (CXCR4 antagonist 0.1 mM infused 10 min; G-CSF or VEGF pre-treatment 4 days), FIG. 21c
SPCs [5] = assay: In situ perfusion of mouse hind limb, CFU-SPC in perfusate; type: in vivo, mice; conditions: for SPC mobilization from the bone marrow: FIG. 21d
Experimental: a, overview of procedures set up for identifying the direct mobilization of progenitor cells from the femoral bone marrow. […] 24 hours after the last injection, mice underwent perfusion of the right hind limb. CXCR4 antagonist (AMD3100 0.1 mM, closed bars) or vehicle (PBS, open bars) were then infused directly into the femoral artery for 10 minutes. The hind limb was then perfused for a further 50 minutes to allow collection of b, CFU-HPC; c, CFU-EPC; or d, CFU-SPC; via the femoral vein. CFU-HPC, CFU-EPC, and CFU-SPC are shown as total number of colonies collected in the perfusate. n=5-8 mice per group. Data: means±s.e.m. *: P<0.05, **: P<0.01, ***: P<0.001 between selected groups.
(§4) 24 hours after the last injection, mice were administered a CXCR4 antagonist (AMD3100, 5 mg/kg i.p), KC (30 μg/kg i.v.) or vehicle and blood was collected via cardiac puncture 60 minutes later for enumeration of circulating leukocyte, HPC, EPC, and stromal progenitor cell levels.
(§5) On day 5 following pre-treatment of growth factors, mice were anaesthetized and the femoral artery and vein exposed. The hind limb was isolated by occlusion of the external iliac artery, superficial epigastric and muscular branch. Polyethylene cannulae (Portex, London, UK) were immediately inserted into the femoral artery and vein as previously described (Martin et al., 2003; 2006; Wengner et al., 2008). Perfusion buffer was infused via the arterial cannula and removed from the venous cannula using a Minipuls peristaltic pump (Anachem, Luton, UK). The hind limb was perfused for an initial 2 minutes to remove remaining blood from the vasculature and then perfused for a further 60 min with vehicle alone or the CXCR4 antagonist (AMD3100, 0.1 mM), infused over the first 10 minutes using an infusion/withdrawal pump (Harvard Instruments, U.K.).
(§6) The perfusate was centrifuged and re-suspended in DMEM+20% FBS. In some experiments citrated blood was obtained via cardiac bleed and lysed for red blood cells. Bone marrow and perfusate cytospins, and blood smears were stained using DiffQuik for the enumeration of mononuclear cells, eosinophils, and neutrophils. Bone marrow, perfusate and lysed blood were then used for assays outlined below to enumerate HPCs (CFU-HPC), EPCs (CFU-EPC), SPCs (CFU-F).
(§7) 5×10^5 cells were added to Mesencult media including supplements (Stemcell Technologies). Dishes were incubated for 7 days before media was changed, and then incubated for a further 14 days before the enumeration of SPC colonies (CFU-F).
(§8) The total number of colony forming units mobilized was calculated according to the number of colonies per plate×by the total number of leukocytes mobilized/number of cells seeded.

HPCs [6] = conditions: cited from earlier work
HPCs [7] = assay: Circulating CFU-HPC in blood; conditions: FIG. 20b
Experimental: a, Experimental protocol. […] 24 hours after the last injection, mice were administered a CXCR4 antagonist (AMD3100 5 mg/kg i.p, closed bars) or vehicle (PBS, open bars). 60 minutes later, blood was taken for analysis of circulating: b, CFU-HPC; c, CFU-EPC; and d, CFU-SPC. CFU-HPC, CFU-EPC, and CFU-SPC are shown as number of colonies per ml blood. n=5-8 mice per group. Data: means±s.e.m. *: P<0.05, **: P<0.01, ***: P<0.001 between selected groups.
as §4
In some experiments citrated blood was obtained via cardiac bleed and lysed for red blood cells. […] Bone marrow, perfusate and lysed blood were then used for assays outlined below to enumerate HPCs (CFU-HPC), EPCs (CFU-EPC), SPCs (CFU-F).
5×10^4 cells were added to Methocult medium (Stem cell technologies) supplemented with specific cytokines and growth factors to enable formation of CFU-HPC. Mobilized cells were incubated for 11 days before quantification.
as §8

SPCs [8] = assay: Circulating CFU-SPC (CFU-F) in blood; conditions: agent alone (AMD3100 5 mg/kg i.p., blood at 60 min; G-CSF once daily for 4 days), FIG. 20d
Experimental: 24 hours after the last injection, mice were administered a CXCR4 antagonist (AMD3100 5 mg/kg i.p, closed bars) or vehicle (PBS, open bars). 60 minutes later, blood was taken for analysis of circulating: b, CFU-HPC; c, CFU-EPC; and d, CFU-SPC. CFU-HPC, CFU-EPC, and CFU-SPC are shown as number of colonies per ml blood. n=5-8 mice per group. Data: means±s.e.m. *: P<0.05, **: P<0.01, ***: P<0.001 between selected groups.
(§9) Female BALB/c mice were purchased from Harlan (Oxford, United Kingdom). […] 24 hours after the last injection, mice were administered a CXCR4 antagonist (AMD3100, 5 mg/kg i.p), KC (30 μg/kg i.v.) or vehicle and blood was collected via cardiac puncture 60 minutes later for enumeration of circulating leukocyte, HPC, EPC, and stromal progenitor cell levels.
The perfusate was centrifuged and re-suspended in DMEM+20% FBS. In some experiments citrated blood was obtained via cardiac bleed and lysed for red blood cells. Bone marrow and perfusate cytospins, and blood smears were stained using DiffQuik for the enumeration of mononuclear cells, eosinophils, and neutrophils. […]
The total number of colony forming units mobilized was calculated according to the number of colonies per plate×by the total number of leukocytes mobilized/number of cells seeded. […]

HPCs [9] = assay: In situ perfusion of mouse hind limb, CFU-HPC in perfusate; conditions: for HPC mobilization from the bone marrow: FIG. 21b
Experimental: 24 hours after the last injection, mice underwent perfusion of the right hind limb. […] The hind limb was then perfused for a further 50 minutes to allow collection of b, CFU-HPC; c, CFU-EPC; or d, CFU-SPC; via the femoral vein. CFU-HPC, CFU-EPC, and CFU-SPC are shown as total number of colonies collected in the perfusate. n=5-8 mice per group. Data: means±s.e.m. *: P<0.05, **: P<0.01, ***: P<0.001 between selected groups.
Female BALB/c mice were purchased from Harlan (Oxford, United Kingdom).
as §5
The perfusate was centrifuged and re-suspended in DMEM+20% FBS. […] Bone marrow, perfusate and lysed blood were then used for assays outlined below to enumerate HPCs (CFU-HPC), EPCs (CFU-EPC), SPCs (CFU-F).
5×10^4 cells were added to Methocult medium (Stem cell technologies) supplemented with specific cytokines and growth factors to enable formation of CFU-HPC. Mobilized cells were incubated for 11 days before quantification. Further characteristics of CFU-HPC colonies were obtained on day 12, namely the mean number of cells in each colony, and the mean colony area. The mean colony area (mm^2) was determined by image analysis using Scion Image analysis program (NIH). The cell number was determined by diluting colonies grown in Methocult into DMEM (to disperse the methylcellulose) and aspirating the colonies into a single cell suspension before obtaining a cell count.
as §8

[10] = test system: endothelial progenitor cells (EPC); assay: Example 1: EPC mobilisation, hind limb bone marrow perfusion and circulating blood, CFU-EPC assay; conditions: for EPC mobilization: perfusate and blood
Experimental: 24 hours after the last injection, mice were administered a CXCR4 antagonist (AMD3100, 5 mg/kg i.p), or vehicle and blood was collected via cardiac puncture 1 hour later for enumeration of circulating leukocyte, HPC, EPC and MSC levels.
On day 5, mice were anaesthetized with urethane (25% 0.2 ml i.p.) and the femoral artery and vein exposed. The hind limb was isolated by occlusion of the external iliac artery, superficial epigastric and muscular branch with 5/0 braided silk suture. Polyethylene cannulae (0.61 mm OD, Portex, London, UK) were immediately inserted into the femoral artery and vein and tied in place with 5/0 braided silk suture. Perfusion buffer (modified Krebs-Ringer bicarbonate buffer) at 37° C. was infused (0.15 ml/min) via the arterial cannula and removed from the venous cannula using a Minipuls peristaltic pump (Anachem, Luton, UK). The hind limb was perfused for an initial 10 minutes to remove remaining blood from the vasculature and then perfused for a further 60 min with vehicle alone or AMD3100, a CXCR4 antagonist (0.1 mM, Sigma UK) infused over the first 10 minutes using an infusion/withdrawal pump (Harvard Instruments, U.K.).
The perfusate was collected and centrifuged and the cell pellet re-suspended in Dulbecco's modified eagles medium (DMEM) with 20% fetal bovine serum (FBS). A total cell count was performed before the perfusate was lysed for red blood cells, re-suspended again in DMEM (20% FBS) and used for assays outlined below to enumerate haematopoietic progenitor cells (CFU-HPC), endothelial progenitor cells (CFU-EPC), and leukocyte populations.
In some experiments blood was taken to enumerate HPCs, EPCs and leukocytes. A total cell count was performed on citrated blood before being lysed for red blood cells and re-suspended in DMEM (20% FBS).
Assay was performed in duplicate. Dishes were incubated for 7 days before media was changed, and then incubated for a further 14 days before the enumeration of late outgrowth endothelial progenitor cells. Early outgrowth endothelial progenitor cells were enumerated on day 5.
In each of the above assays, the total number of colony forming units mobilised is calculated according to the number of colonies per plate×by the total number of leukocytes mobilized/number of cells seeded.
Mice were anaesthetised and the femoral artery and vein was cannulated such that the femoral bone marrow could be perfused (Martin et al, (2006) Br. J. Haem. 134: 326-329). […]
Mice were injected i.p. with the CXCR4 antagonist, AMD3100, (or vehicle control) and 1 h later the mice were killed. Blood was collected by cardiac puncture and stem cell numbers in the blood were determined. […]

[11] = Total number of cells in the femurs; type: in vivo; conditions: treated over 4 days; not significantly different compared to control mice
Experimental: (§10) 24 hours after the last injection, bone marrow was aspirated for the enumeration of a, CFU-HPC bone marrow frequency; b, CFU-EPC bone marrow frequency; and c, CFU-SPC bone marrow frequency.
as §4, §6

EPCs [12] = assay: CFU-EPC bone marrow frequency; type: in vivo, mice; conditions: treated over 4 days, compared to controls, FIG. 22b
SPCs [13] = assay: CFU-SPC bone marrow frequency; type: in vivo, mice; conditions: treated over 4 days, compared to controls, FIG. 22c
Experimental: as §10, §9, §6, §7

SDF-1α = SDF-1α ELISA on bone marrow supernatants; type: in vivo, mice; conditions: treated once daily for 4 days, FIG. 23a
Experimental: (§1) Bone marrow was aspirated on day 5 and harvested cells were used to determine a, SDF-1α levels in bone marrow supernatant as determined by ELISA; b, % of bone marrow Lin^− Sca-1^+ cells expressing CXCR4; and c, % of bone marrow CD34^+ VEGFR2^+ cells expressing CXCR4. Harvested cells were also utilized in the following chemotaxis assays: d, number of HPCs; and e, EPCs undergoing chemotaxis towards 30 nM SDF-1α. Cells taken from bone marrow of mice treated with G-CSF (closed bars) or vehicle (PBS, open bars). f, number of HPCs; and g, EPCs undergoing chemotaxis towards 30 nM SDF-1α.
Supernatant from bone marrow aspirates was analyzed for SDF-1α content as per the recommended protocol for the capture and detection antibody (MAB350 and BAF310 respectively. RnD systems).

CXCR4 = assay: Flow cytometry of CXCR4 expression on bone marrow HPCs and EPCs; type: in vivo, mice; conditions: treated 4 days
Experimental: as §1
(§2) For flow cytometric analysis, cells were re-suspended in FACS buffer. To identify neutrophils in the bone marrow, surface expression of the granulocyte marker Ly-6G/Ly6C (Gr-1) was determined. Neutrophils were identified as Gr-1^high positive cells with a characteristic high side scatter profile. HPCs residing in the BM were selected as being negative for lineage (Lin^−) markers: CD3e, CD11b, CD45R, Ly-76, and Gr-1 and positive for Sca-1 (Lin^− Sca-1^+ cells) (Gerber et al., 2002; Uchida, et al., 1997). EPCs residing in the BM were selected as being positive for both CD34 and VEGFR2 (CD34^+ VEGFR2^+ cells) (Asahara et al., 1997; Yoon et al., 2005). Furthermore, neutrophils were stained for the surface expression of CXCR2, whilst Lin^− Sca-1^+ cells and CD34^+ VEGFR2^+ cells were stained for the cell surface expression of CXCR4. Samples were then washed and then quantified on a FACSAria cell sorter (BD Biosciences, Oxford, United Kingdom) and analysed using FACSDiva software.

HPCs [14] = assay: In vitro chemotaxis of bone marrow HPCs towards SDF-1α; type: cell-based; conditions: bone marrow cells of mice treated 4 days; 30 nM SDF-1α, FIG. 23d, 23f
Experimental: as §1

EPCs [15] = assay: In vitro chemotaxis of bone marrow EPCs towards SDF-1α; type: cell-based; conditions: bone marrow cells of mice treated 4 days; 30 nM SDF-1α, FIG. 23e, 23g
Experimental: as §1

neutrophils = assay: Leukocyte counts of bone marrow; type: in vivo, mice; conditions: treated 4 days, compared to controls, FIG. 24f
Experimental: 24 hours later these mice underwent perfusion of the right hind limb. CXCR4 antagonist (AMD3100 0.1 mM, closed bars) or vehicle (PBS, open bars) were then infused directly into the femoral artery for 10 minutes. The hind limb was then perfused for a further 50 minutes to allow collection of a, neutrophils via the femoral vein. […] The hind limb was again perfused for a further 50 minutes to allow b, collection of neutrophils.
The perfusate was centrifuged and re-suspended in DMEM+20% FBS. […] Bone marrow and perfusate cytospins, and blood smears were stained using DiffQuik for the enumeration of mononuclear cells, eosinophils, and neutrophils.

Lin^− Sca-1^+ HPCs = assay: PI staining, cell cycle status of Lin- Sca-1+ HPCs; type: in vivo, mice; conditions: treated 4 days, FIG. 25c
Experimental: as §2, with “Furthermore, neutrophils were stained for the surface expression of CXCR2, whilst Lin^− Sca-1^+ cells and CD34^+ VEGFR2^+ cells were stained for the cell surface expression of CXCR4.” left out
(§3) Lin^− Sca-1^+ cells and CD34^+ VEGFR2^+ cells were analysed to determine their cell cycling status using a propidium iodide (PI) stain. […] A dotplot of PI-Width against PI-Area was recorded. Aggregates of cells were detected as cells having a larger PI-W profile and were not included in the gate. […] To calculate the percentage of cells undergoing active cell cycling, a marker was set to exclude the G0/G1 peak and the percentage of cells in S/G2/M was calculated.

CD34^+ VEGFR2^+ EPCs = assay: PI staining, cell cycle status of CD34+ VEGFR2+ EPCs; type: in vivo, mice; conditions: treated 4 days, FIG. 25d
Experimental: as §2, with “Furthermore, neutrophils were stained for the surface expression of CXCR2, whilst Lin^− Sca-1^+ cells and CD34^+ VEGFR2^+ cells were stained for the cell surface expression of CXCR4.” left out
as §3

HPCs and MSCs = conditions: Ripa et al. (2007) Circulation 116; cited from earlier work
[16] = agent alone (AMD3100 5 mg/kg i.p., blood at 60 min; G-CSF or VEGF once daily for 4 days)
[17] = agent alone (CXCR4 antagonist 0.1 mM infused 10 min; G-CSF or VEGF pre-treatment 4 days)
[18] = agent alone (CXCR4 antagonist 0.1 mM infused 10 min; G-CSF or VEGF pre-treatment 4 days), perfusate over 1 hour
[19] = growth factor pre-treatment 4 days, then CXCR4 antagonist infused

c1cc(CN2CCCNCCNCCCNCC2)ccc1CN1CCCNCCNCCCNCC1 [AMD3100, reference compound]
HPCs mobilised (number) ([1]; AMD3100 alone, 0.1 mM infused into hind limb, perfusate, FIG. 3): about 4000 | MSC mobilization ([2]; agent alone): does not mobilize MSCs | circulating numbers of EPCs (EPCs [3]; [16]): increased circulating numbers of HPCs and EPCs | EPC mobilization from the bone marrow (EPCs [4]): HPCs and EPCs, but not SPCs were mobilized | SPC mobilization from the bone marrow (SPCs [5]; [17]): HPCs and EPCs, but not SPCs were mobilized | circulating numbers of HPCs (HPCs [6]; AMD3100 alone, mice and humans): stimulates a rapid rise in circulating numbers of HPCs in both mice and humans | circulating numbers of HPCs (HPCs [7]; [16]): increased circulating numbers of HPCs and EPCs | circulating SPCs (SPCs [8]): SPCs were not detected in the blood | HPC mobilization from the bone marrow (HPCs [9]; [18]): HPCs and EPCs, but not SPCs were mobilized | EPCs mobilised (number) ([10]; AMD3100 alone, 0.1 mM infused into hind limb, perfusate, FIG. 5): ~400 | EPC mobilization ([10]; agent alone, FIGS. 5 and 6): stimulates the mobilization of EPCs

B1: G-CSF: Granulocyte-colony stimulating factor, recombinant murine cytokine from PeproTech (protein, UniProt P09920 31-208, looked up)
Granulocyte …: VPLVTVSALPPSLPLPRSFLLKSLEQVRKIQASGSVLLEQLCATYKLCHPEELVLLGHSLGIPKASLSGCSSQALQQTQCLSQLHSGLCLYQGLLQALSGISPALAPTLDLLQLDVANFATTIWQQMENLGVAPTVQPTQSAMPAFTSAFQRRAGGVLAISYLQGFLETARLALHHLA
HPC mobilization ([1]; G-CSF or VEGF 2.5 μg on 4 consecutive days, then AMD3100 (0.1 mM infusion or 5 mg/kg i.p.), perfusate and blood, FIGS. 1-4): acts synergistically with AMD3100 to mobilize HPCs | MSC mobilization ([2]; G-CSF or VEGF 2.5 μg on 4 consecutive days, then AMD3100): does not mobilize MSCs | MSC mobilization ([2]; agent alone): does not mobilize MSCs | circulating numbers of EPCs (EPCs [3]; growth factor pre-treatment over 4 days, then CXCR4 antagonist AMD3100 5 mg/kg i.p.): no such synergism (or even additive effect) was apparent for EPC mobilization | EPC mobilization from the bone marrow (EPCs [4]): enhanced the basal rate of HPC and EPC egress from the bone marrow | EPC mobilization, acute administration (EPCs [4]; growth factor (50 nM) infused into femoral artery for 10 minutes, alone, FIG. 31b): mobilized both HPCs and EPCs | SPC mobilization from the bone marrow (SPCs [5]; [17]): did not lead to the mobilization of SPCs | SPC mobilization, acute administration (SPCs [5]; growth factor (50 nM) infused acutely, alone or in combination with CXCR4 antagonist, FIG. 31c): neither growth factor, when administered acutely or in combination with the CXCR4 antagonist led to mobilization of SPCs | SPC mobilization from the bone marrow (SPCs [5]; [19]): no SPCs were mobilized | total number of cells in the femurs [11]: 1.41±0.28×10^7 cells/femur | frequency/number of EPCs in the bone marrow (EPCs [12]): significant reduction in the number of bone marrow EPCs | frequency/number of SPCs in the bone marrow (SPCs [13]): an increase in the number of SPCs | SDF-1α levels in bone marrow supernatant (SDF-1α): significant reduction in levels of SDF-1α | CXCR4 expression on EPCs (CXCR4; CD34+ VEGFR2+ bone marrow cells, FIG. 23c): the expression of CXCR4 on EPCs was unchanged | CXCR4 expression on HPCs (CXCR4; Lin- Sca-1+ bone marrow cells, FIG. 23b): significant reduction | HPC chemotaxis towards SDF-1α (HPCs [14]): further increased migration of HPCs and EPCs to SDF-1α | EPC chemotaxis towards SDF-1α (EPCs [15]): further increased migration of HPCs and EPCs to SDF-1α | numbers of neutrophils in the bone marrow (neutrophils): increased numbers of neutrophils in the bone marrow | percentage of Lin- Sca-1+ HPCs in S/G2/M phase of the cell-cycle (Lin^− Sca-1^+ HPCs): does not stimulate entry | percentage of CD34+ VEGFR2+ EPCs in S/G2/M phase of the cell-cycle (CD34^+ VEGFR2^+ EPCs): does not stimulate entry | HPC mobilization (HPCs [6]; chronic G-CSF treatment combined with acute treatment with AMD3100): synergistic effect | stem cell mobilisation (HPCs and MSCs): mobilises HPCs but causes a decrease in MSCs | circulating numbers of HPCs (HPCs [7]; [16]): increased circulating numbers of HPCs | circulating numbers of HPCs (HPCs [7]; growth factor pre-treatment over 4 days, then CXCR4 antagonist AMD3100 5 mg/kg i.p., blood at 60 min): synergistically enhanced circulating numbers of HPCs | circulating SPCs (SPCs [8]): no SPCs were detected | HPC mobilization from the bone marrow (HPCs [9]; [18]): enhanced the basal rate of HPC and EPC egress from the bone marrow | HPC mobilization, acute administration (HPCs [9]; growth factor (50 nM) infused into femoral artery for 10 minutes, alone, FIG. 31a): mobilized both HPCs and EPCs | HPC mobilization from the bone marrow (HPCs [9]; [19]): synergistic mobilization of HPCs | EPC mobilization ([10]; G-CSF or VEGF 2.5 μg on 4 consecutive days, then AMD3100, FIGS. 5-8): not enhanced
